In general, KM refers to the substrate concentration at which the rate is half of its maximum. Usually kcat stands for the maximal rate divided by the concentration of active sites.

Some results are limits rather than exact numbers.

The values that follow come from patent publication US20130078661.

Series [1] deals with T1, S-VWF (Venus - VWF 1558-1670 - Cerulean - His tag FRET protein).
T1 chain: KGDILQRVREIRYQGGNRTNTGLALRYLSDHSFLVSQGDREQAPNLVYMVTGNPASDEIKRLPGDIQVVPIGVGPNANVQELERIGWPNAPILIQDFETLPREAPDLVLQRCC

Series [2] deals with T2, M-VWF (Venus - VWF 1530-1670 - Cerulean - His tag FRET protein).
T2 chain: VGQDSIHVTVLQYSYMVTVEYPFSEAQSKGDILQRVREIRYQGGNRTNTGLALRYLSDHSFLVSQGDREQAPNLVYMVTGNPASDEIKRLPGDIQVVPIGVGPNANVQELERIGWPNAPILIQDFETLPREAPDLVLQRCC

Series [3] has as its target Mutant VWF-A2 FRET protein with a change at Pro1645 (P1645A).
For series [4], the target named is Multimeric human plasma VWF.
Series [5] deals with T3, XS-VWF (Venus - VWF 1594-1670 - Cerulean - His tag FRET protein).
T3 chain: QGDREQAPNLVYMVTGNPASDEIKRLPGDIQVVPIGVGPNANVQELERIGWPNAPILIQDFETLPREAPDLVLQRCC

For series [6], the target named is Mutant VWF-A2 FRET protein with Cysteine to Glycine at positions 1669 and 1670 (CC1669-70GG).
The target of series [7] is T4, L-VWF (Venus - VWF 1496-1670 - Cerulean - His tag FRET protein).
T4 chain: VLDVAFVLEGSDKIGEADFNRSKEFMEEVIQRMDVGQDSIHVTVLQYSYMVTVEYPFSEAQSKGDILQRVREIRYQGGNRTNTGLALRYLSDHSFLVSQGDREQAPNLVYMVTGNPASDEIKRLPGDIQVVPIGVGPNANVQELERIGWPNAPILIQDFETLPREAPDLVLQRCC

Series [8] has as its target T5, XS-VWF(AA) (XS-VWF with Y1605-M1606 replaced by A1605-A1606).
T5 chain: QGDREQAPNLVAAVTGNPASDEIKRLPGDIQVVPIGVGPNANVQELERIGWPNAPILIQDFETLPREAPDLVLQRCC

B1: Recombinant human ADAMTS13 (protein)
chain: AAGGILHLELLVAVGPDVFQAHQEDTERYVLTNLNIGAELLRDPSLGAQFRVHLVKMVILTEPEGAPNITANLTSSLLSVCGWSQTINPEDDTDPGHADLVLYITRFDLELPDGNRQVRGVTQLGGACSPTWSCLITEDTGFDLGVTIAHEIGHSFGLEHDGAPGSGCGPSGHVMASDGAAPRAGLAWSPCSRRQLLSLLSAGRARCVWDPPRPQPGSAGHPPDAQPGLYYSANEQCRVAFGPKAVACTFAREHLDMCQALSCHTDPLDQSSCSRLLVPLLDGTECGVEKWCSKGRCRSLVELTPIAAVHGRWSSWGPRSPCSRSCGGGVVTRRRQCNNPRPAFGGRACVGADLQAEMCNTQACEKTQLEFMSQQCARTDGQPLRSSPGGASFYHWGAAVPHSQGDALCRHMCRAIGESFIMKRGDSFLDGTRCMPSGPREDGTLSLCVSGSCRTFGCDGRMDSQQVWDRCQVCGGDNSTCSPRKGSFTAGRAREYVTFLTVTPNLTSVYIANHRPLFTHLAVRIGGRYVVAGKMSISPNTTYPSLLEDGRVEYRVALTEDRLPRLEEIRIWGPLQEDADIQVYRRYGEEYGNLTRPDITFTYFQPKPRQAWVWAAVRGPCSVSCGAGLRWVNYSCLDQARKELVETVQCQGSQQPPAWPEACVLEPCPPYWAVGDFGPCSASCGGGLRERPVRCVEAQGSLLKTLPPARCRAGAQQPAVALETCNPQPCPARWEVSEPSSCTSAGGAGLALENETCVPGADGLEAPVTEGPGSVDEKLPAPEPCVGMSCPPGWGHLDATSAGEKAPSPWGSIRTGAQAAHVWTPAAGSCSVSCGRGLMELRFLCMDSALRVPVQEELCGLASKPGSRREVCQAVPCPARWQYKLAACSVSCGRGVVRRILYCARAHGEDDGEEILLDTQCQGLPRPEPQEACSLEPCPPRWKVMSLGPCSASCGLGTARRSVACVQLDQGQDVEVDEAACAALVRPEASVPCLIADCTYRWHVGTWMECSVSCGDGIQRRRDTCLGPQAQAPVPADFCQHLPKPVTVRGCWAGPCVGQGTPSLVPHEEAAAPGRTTATPAGASLEWSQARGLLFSPAPQPRRLLPGPQENSVQSSACGRQHLEPTGTIDMRGPGQADCAVAIGRPLGEVVTLRVLESSLNCSAGDMLLLWGRLTWRKMCRKLLDMTFSSKTNTLVVRQRCGRPGGGVLLRYGSQLAPETFYRECDMQLFGPWGEIVSPSLSPATSNAGGCRLFINVAPHARIAIHALATNMGAGTEGANASYILIRDTHSLRTTAFHGQQVLYWESESSQAEMEFSEGFLKAQASLRGQYWTLQSWVPEMQDPQSWKGKEGT
On to B1, for which, in series [1], the “FRET ratio after 1 h with ADAMTS13, no denaturant” value (“FRET ratio … no denaturant” for short) is reported as “from 1.24 to 1.84 for S-VWF”; the “extent of cleavage (FRET ratio and western blot), varying urea” value is “Complete cleavage of XS-VWF and S-VWF was observed at urea concentrations <2.8M”. Also, in series [2], the “FRET ratio … no denaturant” value is “There was very little change in the FRET ratio of M-VWF”; the “extent of cleavage, no urea” value is “In the absence of urea, the extent of cleavage of both L- and M-VWF was 20%”; the “proteolysis at 1.6M urea” value is “Increasing urea concentration to 1.6M resulted in 30% proteolysis”. The “cleavage in 1M urea, western blot” value in series [3] is reported as “changes in the Pro1645 site enhances VWF cleavage even in the presence of low concentrations of urea that are insufficient to cleave the wild-type protein”. In series [4], the “cleavage after pre-denaturation with 4M urea, western blot” value is on record as “Proteolysis was however complete at urea>2.4M, provided a pre-denaturation step was included”; the “cleavage without pre-denaturation, western blot” value is “multimeric VWF was also not fully cleaved when the protein was incubated with varying urea concentrations and ADAMTS13”. Further, in series [5], the “FRET ratio … no denaturant” value is “FRET ratio increased from 0.78 to 1.73 for XS-VWF”; the “cleavage, western blot with anti-his pAb” value is given as “XS-VWF but not XS-VWF(AA) was cleaved by recombinant ADAMTS13”; the “extent of cleavage (FRET ratio and western blot), varying urea” value is “Complete cleavage of XS-VWF and S-VWF was observed at urea concentrations <2.8M”. In addition, the “cleavage in 1M urea, western blot” value in series [6] was “substitution of Cysteine by Glycine at positions 1669 and 1670 enhances VWF A2 domain proteolysis”. Further, in series [7], the “FRET ratio … no denaturant” value is given as “There was very little change in the FRET ratio of ... L-VWF”; the “cleavage at 2M urea after pre-denaturation with 4M urea” value is listed as >90% cleavage of L-VWF was observed at 2M urea upon inclusion of the pre-denaturation step; the “extent of cleavage, no urea” value is “In the absence of urea, the extent of cleavage of both L- and M-VWF was 20%”; the “proteolysis at 1.6M urea” value is listed as “Increasing urea concentration to 1.6M resulted in 30% proteolysis”. Also, in series [8], the “FRET ratio … no denaturant” value is “There was very little change in the FRET ratio of ... XS-VWF(AA)” and the “cleavage, western blot with anti-his pAb” value is “XS-VWF but not XS-VWF(AA) was cleaved by recombinant ADAMTS13”.

B2: ADAMTS13 in human plasma (protein)
chain: AAGGILHLELLVAVGPDVFQAHQEDTERYVLTNLNIGAELLRDPSLGAQFRVHLVKMVILTEPEGAPNITANLTSSLLSVCGWSQTINPEDDTDPGHADLVLYITRFDLELPDGNRQVRGVTQLGGACSPTWSCLITEDTGFDLGVTIAHEIGHSFGLEHDGAPGSGCGPSGHVMASDGAAPRAGLAWSPCSRRQLLSLLSAGRARCVWDPPRPQPGSAGHPPDAQPGLYYSANEQCRVAFGPKAVACTFAREHLDMCQALSCHTDPLDQSSCSRLLVPLLDGTECGVEKWCSKGRCRSLVELTPIAAVHGRWSSWGPRSPCSRSCGGGVVTRRRQCNNPRPAFGGRACVGADLQAEMCNTQACEKTQLEFMSQQCARTDGQPLRSSPGGASFYHWGAAVPHSQGDALCRHMCRAIGESFIMKRGDSFLDGTRCMPSGPREDGTLSLCVSGSCRTFGCDGRMDSQQVWDRCQVCGGDNSTCSPRKGSFTAGRAREYVTFLTVTPNLTSVYIANHRPLFTHLAVRIGGRYVVAGKMSISPNTTYPSLLEDGRVEYRVALTEDRLPRLEEIRIWGPLQEDADIQVYRRYGEEYGNLTRPDITFTYFQPKPRQAWVWAAVRGPCSVSCGAGLRWVNYSCLDQARKELVETVQCQGSQQPPAWPEACVLEPCPPYWAVGDFGPCSASCGGGLRERPVRCVEAQGSLLKTLPPARCRAGAQQPAVALETCNPQPCPARWEVSEPSSCTSAGGAGLALENETCVPGADGLEAPVTEGPGSVDEKLPAPEPCVGMSCPPGWGHLDATSAGEKAPSPWGSIRTGAQAAHVWTPAAGSCSVSCGRGLMELRFLCMDSALRVPVQEELCGLASKPGSRREVCQAVPCPARWQYKLAACSVSCGRGVVRRILYCARAHGEDDGEEILLDTQCQGLPRPEPQEACSLEPCPPRWKVMSLGPCSASCGLGTARRSVACVQLDQGQDVEVDEAACAALVRPEASVPCLIADCTYRWHVGTWMECSVSCGDGIQRRRDTCLGPQAQAPVPADFCQHLPKPVTVRGCWAGPCVGQGTPSLVPHEEAAAPGRTTATPAGASLEWSQARGLLFSPAPQPRRLLPGPQENSVQSSACGRQHLEPTGTIDMRGPGQADCAVAIGRPLGEVVTLRVLESSLNCSAGDMLLLWGRLTWRKMCRKLLDMTFSSKTNTLVVRQRCGRPGGGVLLRYGSQLAPETFYRECDMQLFGPWGEIVSPSLSPATSNAGGCRLFINVAPHARIAIHALATNMGAGTEGANASYILIRDTHSLRTTAFHGQQVLYWESESSQAEMEFSEGFLKAQASLRGQYWTLQSWVPEMQDPQSWKGKEGT
With B2, the KM is 1.8 µM in series [1]; 4.6 µM and KM=4 µM in series [5]. Further, the results for the kcat in series [1] and in series [5] were 0.295 s⁻¹ and 0.747 s⁻¹, respectively. Further, the “cleavage by FRET, 20% human plasma, 2 hours, 2M urea” value in series [3] and in series [6] was “higher cleavage of mutant VWF proteins compared to the wild-type molecule upon addition of low concentrations of urea” each time.
